# B1: GST-ZMWEE1 (glutathione S-transferase ZMWEE1 fusion protein, from pGEX2Tzmwee1, made in E. coli) (protein)
# chain: CTPDYITPEMPQVANEFDDDDKENIPCPKSPEKSANPRSKRYRTDCSPKAREVTDFSFDHQITPVLFDSLTRDDSEEEQPKQPALEKRGGYVSQSAVALRCRVMPPPCVKNPYLNTDPCIDAAVYGGRQCNSAVFSPSIGGNGLSRYRTDFHEIEKIGYGNFSVVFKVLNRIDGCLYAVKRSIKQLHNDMERRQAVKEVQAMAALGSHENIVRYFTSWFENEQLYIQMELCDRCLSMNRNQPVKRGEALELLYQICKGLDFMHERGIAHLDVKPDNIYVRNGIYKLGDFGCATLVNRSLAIEDGDSRYMPPEMLNDKYEHLDKVDIFSLGAAVYELIRGTPLPESGSHFTSIREGKIALLPGCPMQFQSLIKSMMDPDPVRRPSAKEILRHPSFDKLHKASSK
# Target: maize CDK (cyclin-dependent protein kinase) from immature ear extract
protein,measurement,value
B1,CDK activity (histone H1 kinase activity) of CDK adsorbed by p13^suc1,"GST-ZMWEE1, with or without pre-incubation, inhibited CDK activity"
same,histone H1-kinase activity in crude immature ear extract,GST-ZMWEE1 inhibits the histone H1-kinase activity in the extract
